# Test results published in paper PMC4460183, “Catalytic and hydrodynamic properties of styrene monooxygenases from Rhodococcus opacus 1CP are modulated by cofactor binding” (AMB Express, 2015).
# Values joined by “and” are separate entries in the source; they are usually repeats but may differ in a detail not shown here. Equal entries are not always repeated.
# Legend:
# [1] = biological target: StyA2B self-sufficient styrene monooxygenase from Rhodococcus opacus 1CP (Rhodococcus opacus 1CP) (UniProt C7ACG1); assay: SEC; analytical gel filtration, Superdex 200 HR 10/30, 22°C, 10 mM Tris-HCl pH 7.2, 500 mM NaCl; reduced holoenzyme, 12.7 µM FAD and 1 mM sodium dithionite, anaerobic buffer
# [2] = biological target: StyA2B self-sufficient styrene monooxygenase from Rhodococcus opacus 1CP (Rhodococcus opacus 1CP) (UniProt C7ACG1); assay: SEC; analytical gel filtration, Superdex 200 HR 10/30, 22°C, 0.6 mL/min, 10 mM Tris-HCl pH 7.2, 500 mM NaCl; 100 µL of protein (1.95 mg/mL StyA1, 2.17 mg/mL StyA2B, 11.45 mg/mL StyA); apo-enzyme, no FAD
# [3] = biological target: StyA2B self-sufficient styrene monooxygenase from Rhodococcus opacus 1CP (Rhodococcus opacus 1CP) (UniProt C7ACG1); assay: SEC; analytical gel filtration, Superdex 200 HR 10/30, 22°C, 10 mM Tris-HCl pH 7.2, 500 mM NaCl; oxidized holoenzyme, 12.7 µM FAD in buffer and sample
# StyA = biological target: T1, StyA (Rhodococcus opacus, UniProt A0A076JVU4); assay: HPLC of phenyl vinyl sulfoxide formed; format: biochemical; conditions: StyB of P. fluorescens ST (threefold excess), FAD, NADH regeneration by formate dehydrogenase, catalase
# T1 construct: full length, 427 residues, 46,580 Da calculated; apo form purified; monomer; P. fluorescens ST StyB as coupling reductase in oxygenase assays
# [4] = biological target: StyA1 styrene monooxygenase from Rhodococcus opacus 1CP (Rhodococcus opacus 1CP) (UniProt C7ACG0); assay: SEC; analytical gel filtration, Superdex 200 HR 10/30, 22°C, 10 mM Tris-HCl pH 7.2, 500 mM NaCl; reduced holoenzyme, 12.7 µM FAD and 1 mM sodium dithionite, anaerobic buffer
# [5] = biological target: StyA1 styrene monooxygenase from Rhodococcus opacus 1CP (Rhodococcus opacus 1CP) (UniProt C7ACG0); assay: SEC; analytical gel filtration, Superdex 200 HR 10/30, 22°C, 0.6 mL/min, 10 mM Tris-HCl pH 7.2, 500 mM NaCl; 100 µL of protein (1.95 mg/mL StyA1, 2.17 mg/mL StyA2B, 11.45 mg/mL StyA); apo-enzyme, no FAD
# [6] = biological target: StyA1 styrene monooxygenase from Rhodococcus opacus 1CP (Rhodococcus opacus 1CP) (UniProt C7ACG0); assay: SEC; analytical gel filtration, Superdex 200 HR 10/30, 22°C, 10 mM Tris-HCl pH 7.2, 500 mM NaCl; oxidized holoenzyme, 12.7 µM FAD in buffer and sample
# StyA1 = biological target: T2, StyA1 (Rhodococcus opacus, UniProt C7ACG0); assay: analytical gel filtration, oligomer shift; format: binding; conditions: 12.7 µM FAD, no dithionite; 10 mM Tris-HCl pH 7.2, 500 mM NaCl, 22 °C
# T2 construct: N-terminal His10 tag kept, E. coli BL21; apo form purified; monomer-dimer, dimer with reduced FAD; oxygenase assays with P. fluorescens ST StyB as coupling reductase
# [7] = biological target: the molecule itself; assay: SEC; analytical gel filtration, Superdex 200 HR 10/30, 22°C, 10 mM Tris-HCl pH 7.2, 500 mM NaCl; oxidized holoenzyme, 12.7 µM FAD in buffer and sample
# [8] = biological target: the molecule itself; assay: SEC; analytical gel filtration, Superdex 200 HR 10/30, 22°C, 0.6 mL/min, 10 mM Tris-HCl pH 7.2, 500 mM NaCl; 100 µL of protein (1.95 mg/mL StyA1, 2.17 mg/mL StyA2B, 11.45 mg/mL StyA); apo-enzyme, no FAD
# purified protein [9] = substrate: Cc1cc2nc3c(=O)[nH]c(=O)nc-3n(C[C@H](O)[C@H](O)[C@H](O)COP(=O)(O)OP(=O)(O)OC[C@H]3O[C@@H](n4cnc5c(N)ncnc54)[C@H](O)[C@@H]3O)c2cc1C; assay: purified protein; format: biochemical, Pseudomonas fluorescens; conditions: NADH in excess, 8 mM Tris-HCl pH 7.5, 30 °C
# purified protein [10] = substrate: NC(=O)C1=CN([C@@H]2O[C@H](COP(=O)(O)OP(=O)(O)OC[C@H]3O[C@@H](n4cnc5c(N)ncnc54)[C@H](O)[C@@H]3O)[C@@H](O)[C@H]2O)C=CC1; assay: purified protein; format: biochemical, Pseudomonas fluorescens; conditions: FAD in excess, 8 mM Tris-HCl pH 7.5, 30 °C
# [11] = biological target: the molecule itself; assay: SEC; data not shown; StyB in the presence of the cofactor FAD; method taken from the section on quaternary structure (analytical gel filtration), not given
# [12] = substrate: Cc1cc2nc3c(=O)[nH]c(=O)nc-3n(C[C@H](O)[C@H](O)[C@H](O)COP(=O)(O)OP(=O)(O)OC[C@H]3O[C@@H](n4cnc5c(N)ncnc54)[C@H](O)[C@@H]3O)c2cc1C; assay: NADH consumption, spectrophotometric, Michaelis-Menten fit; format: biochemical, Rhodococcus opacus; conditions: NADH in excess, 8 mM Tris-HCl pH 7.5, 30 °C, read at 320 nm, apparent constant
# Source text: (§1) NADH consumption, spectrophotometric, Michaelis-Menten fit on StyB-1CP (StyB from Rhodococcus opacus 1CP)
# [13] = substrate: NC(=O)C1=CN([C@@H]2O[C@H](COP(=O)(O)OP(=O)(O)OC[C@H]3O[C@@H](n4cnc5c(N)ncnc54)[C@H](O)[C@@H]3O)[C@@H](O)[C@H]2O)C=CC1; assay: as above; format: biochemical, Rhodococcus opacus; conditions: FAD in excess, 8 mM Tris-HCl pH 7.5, 30 °C, read at 320 nm, apparent constant
# Source text: as §1
# T2 sequence (C7ACG0 entry or part of it): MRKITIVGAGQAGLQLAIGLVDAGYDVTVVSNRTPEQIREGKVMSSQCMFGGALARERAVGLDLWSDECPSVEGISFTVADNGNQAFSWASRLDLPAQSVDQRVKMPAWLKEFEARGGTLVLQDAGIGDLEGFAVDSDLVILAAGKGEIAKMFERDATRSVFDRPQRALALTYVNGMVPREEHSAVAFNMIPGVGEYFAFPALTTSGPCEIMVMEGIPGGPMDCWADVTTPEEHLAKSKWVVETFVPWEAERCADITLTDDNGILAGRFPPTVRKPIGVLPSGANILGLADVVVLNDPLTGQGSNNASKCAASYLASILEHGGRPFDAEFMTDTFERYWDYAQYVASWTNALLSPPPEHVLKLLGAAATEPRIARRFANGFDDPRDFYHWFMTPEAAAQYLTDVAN
molecule,measurement,setting,value
StyA2B self-sufficient styrene monooxygenase from Rhodococcus opacus 1CP (from UniProt C7ACG1 1-573) (enzyme),stoichiometry N,[1],2
same,stoichiometry N,[2],2
same,stoichiometry N,[3],2
C=CSc1ccccc1 [phenyl vinyl sulfide],HPLC of phenyl vinyl sulfoxide formed,StyA,All three SMO isoforms were found to convert this substrate
StyA1 styrene monooxygenase from Rhodococcus opacus 1CP (from UniProt C7ACG0 1-406) (enzyme),stoichiometry N,[4],2
same,stoichiometry N,[5],2
same,stoichiometry N,[6],2
Cc1cc2nc3c(=O)[nH]c(=O)nc-3n(C[C@H](O)[C@H](O)[C@H](O)COP(=O)(O)OP(=O)(O)OC[C@H]3O[C@@H](n4cnc5c(N)ncnc54)[C@H](O)[C@@H]3O)c2cc1C [FAD],"analytical gel filtration, oligomer shift",StyA1,"For holo-StyA1, the equilibrium shifted towards the dimeric form"
"StyA styrene monooxygenase from Rhodococcus opacus 1CP (styABCD cluster) (enzyme, UniProt A0A076JVU4 1-426, looked up, StyA of the styABCD cluster, Rhodococcus opacus 1CP, 427 amino acid residues, calculated mass 46,580 Da; amplified from genomic DNA with printed primers that hold the start codon (NdeI CATATG) and the stop codon (TCA in the reverse primer); Apparent subunit mass 50 kDa including the His-tag (SDS-PAGE); also called holo-StyA; source: E. coli BL21, purified (HisTrap FF IMAC)) MSKRIAIVGAGTAGLHLGLYLNEKGIDATIFTDRRPEEYANIRLLNTVAHHSVTIDREDALGIDHWPNDGYFGHYYYVGIPGMPIRSYGDLAKPSRAVDYRILQPQLMRDFEERGGKIEYRPIRVEDLTVLSDDYDLVVIGTGKGGLGTLFARDEQSSPFTEPQRQLCVGIFKGIAPAETRAVTFCISPGAGEMIEIPTVTFSGDATALVFENHIGSDLEVLAHTRYEDDPRAFLDLMIEKLKQHYPITAERLDEKEFDVANSHLDILQGGVTPTVRHGHVKLDNGKLAVLLGDAHATVDPVLGQGGNMASYAAHVLGEEIAGNEVYDELFCERVDARRAGRVLGATRWTNFMLSNLKELPNHFVEFLGRVMMDRQLADRFTDNFNYPEKQWDIFSSPENMVAWIEANETGAEETERPFAQTGAQS",stoichiometry N,[7],2
same,stoichiometry N,[8],2 and 4
"StyB-ST (StyB from P. fluorescens ST) (Pseudomonas fluorescens) (protein, full length; E. coli BL21) MTLKKDVAVDIDSTCFRQAVALFATGIAVLSAETEEGEVHGMTVNSFTSISLDPPTVMVSLKSGRMHELLTRGGRFGVSLLGESQKVFSAFFSKRVMDDTPSPAFTIQAGLPTLRDAMAWFECEVESTVQVHDHTLFIARVSACGTPEANAPQPLLFFASRYHGKPLPLN",Km,purified protein [9],2.6 ± 0.4 µM
same,kcat,purified protein [9],8.7 ± 0.3 s⁻¹
same,kcat/Km,purified protein [9],3.35e+06 M⁻¹ s⁻¹
same,Km,purified protein [10],18.9 ± 1.0 µM
same,kcat,purified protein [10],8.8 ± 0.1 s⁻¹
same,kcat/Km,purified protein [10],466000 M⁻¹ s⁻¹
"StyB flavin reductase from Rhodococcus opacus 1CP (enzyme, UniProt A0A076K0M4 1-177, looked up, StyB, FAD reductase of the styABCD cluster, Rhodococcus opacus 1CP, 178 amino acid residues, calculated mass 19,053 Da; also called StyB-1CP; source: E. coli BL21, purified (HisTrap FF IMAC), concentrated in the presence of 10 µM FAD) MTRAAEAPPAPEVLSAPVEVAADSTQFRNSVALFATGIAVVTMQDGEGGVHGATINSFTSISLDPPTVMISLKPGYAHELISKSGWYGVSVLSKTQQEHSRYFCGTRDSDWHPQFVAGENVPTLFGSLARFECKVIDTITVNDHTLFLARVARCESEDGSPLMFFASTYHQPALGES",stoichiometry N,[11],2
same,Km,[12],108.3 ± 18.3 µM
same,kcat,[12],32.9 ± 2.3 s⁻¹
same,kcat/Km,[12],304000 M⁻¹ s⁻¹
same,Km,[13],59.3 ± 4.2 µM
same,kcat,[13],26.9 ± 0.6 s⁻¹
same,kcat/Km,[13],454000 M⁻¹ s⁻¹
